Laboratory results reported in IntAct's records for PubMed 29611543.

B1: Triggering receptor expressed on myeloid cells 2 (Homo sapiens), Q9NZC2 (parent)
chain: MEPLRLLILLFVTELSGAHNTTVFQGVAGQSLQVSCPYDSMKHWGRRKAWCRQLGEKGPCQRVVSTHNLWLLSFLRRWNGSTAITDDTLGGTLTITLRNLQPHDAGLYQCQSLHGSEADTLRKVLVEVLADPLDHRDAGDLWFPGESESFEDAHVEHSISRSLLEGEIPFPPTSILLLLACIFLIKILAASALWAAAWHGQKPGTHPPSELDCGHDPGYQLQTLPGLRDT

Variants of: B1
Details: with psn1_human PSEN1, P49768

effect of a mutation on the interaction | Variant
with no effect | MEPLRLLILLFVTELSGAHNTTVFQGVAGQSLQVSCPYDSMKHWGRRKAWCRQLGEKGPCQRVVSMHNLWLLSFLRRWNGSTAITDDTLGGTLTITLRNLQPHDAGLYQCQSLHGSEADTLRKVLVEVLADPLDHRDAGDLWFPGESESFEDAHVEHSISRSLLEGEIPFPPTSILLLLACIFLIKILAASALWAAAWHGQKPGTHPPSELDCGHDPGYQLQTLPGLRDT [T66M]
with no effect | MEPLRLLILLFVTELSGAHNTTVFQGVAGQSLQVSCPYDSMKHWGRRKAWCRQLGEKGPCQRVVSTHNLWLLSFLRRWNGSTAITDDTLGGTLTIKLRNLQPHDAGLYQCQSLHGSEADTLRKVLVEVLADPLDHRDAGDLWFPGESESFEDAHVEHSISRSLLEGEIPFPPTSILLLLACIFLIKILAASALWAAAWHGQKPGTHPPSELDCGHDPGYQLQTLPGLRDT [T96K]
with no effect | MEPLRLLILLFVTELSGAHNTTVFQGVAGQSLQVSCPYDSMKHWGRHKAWCRQLGEKGPCQRVVSTHNLWLLSFLRRWNGSTAITDDTLGGTLTITLRNLQPHDAGLYQCQSLHGSEADTLRKVLVEVLADPLDHRDAGDLWFPGESESFEDAHVEHSISRSLLEGEIPFPPTSILLLLACIFLIKILAASALWAAAWHGQKPGTHPPSELDCGHDPGYQLQTLPGLRDT [R47H]
